In publication PMC7954794, “Protein context shapes the specificity of SH3 domain-mediated interactions in vivo” (Nature Communications, 2021):

B1: CYK3 (protein, UniProt Q07533 1-885, looked up)
Cytokinesis protein 3: MATNLTSLKPPFKVKARYGWSGQTKGDLGFLEGDIMEVTRIAGSWFYGKLLRNKKCSGYFPHNFVILLEERLNSSTENGRQPSKIVESFEKSNKVVIPPVPSRYSDERPRPKKKLSSSMPNSPKKPVDSLTKARKAKSKEMVNEKNIYNTQSSRHHNNSAPNLPLASHSKPQVRNFEESMNNPLPPLPPLPDLDNMRKTDKRAPKKSYSANDLHMARSSREYNYYKDNQKFYDGFIPEKRYSLEEDSISSGLFSNSQYLNDSACSSENSFALMSDFSATSAGSFARHKYAQSFSDSLQRSQNANGCSTKINDSQEFGDSNASSRNGKMGDILRKIIIPKRNTNIYSSSVSSPKSPKAYPKLPDIQNLNLSATPDEARDWIAVKCHLNRARTLTKYDKHPRYMRALEENRDLILHPQDSIYNGLNTNEVKGNTKPGLVDVELAELNIEYIDKMTWKRCIRDGTMTLDSWAQTTFSARYSTVLEKLRGIYIFCTEMFALTDDNGTSDFSAEPQNLEKILYRKHCTPYELTWLFKKLANSLGITCEIVIGFLKTPSAINWEFKYNHCWLRILVNKEWRFIDVILGNVTNPIHEFVNNRKIKKAENSYFLMAPLEMIYTHIPPREFEQHIVPSIDQLSALYLPLVFPSFFKNELKLYKFSTALSFLEDSEIYECSLEIPNDVEVFASVVIPTDNEEASSAYRNMELALTQIKKQKAESGRRIALIKAVLPPNVNKGSLYIHSGVRGTQTSIANIHPLSMMVPLTHKGSNMKYEFVIKIPSESIQKIELYIVEPQSRYLFVGNEYSFEVIQSPSDGIVYSSDEGPNQNRKQPMAIKSPSGRVHELVKSDPHFPYGTWKGSIKIKEPGVWSALVIADSGIGWSVFAEWLCV
B2: FUS1 (protein, UniProt P11710 1-512, looked up)
Nuclear fusion protein FUS1: MVATIMQTTTTVLTTVAAMSTTLASNYISSQASSSTSVTTVTTIATSIRSTPSNLLFSNVAAQPKSSSASTIGLSIGLPIGIFCFGLLILLCYFYLKRNSVSISNPPMSATIPREEEYCRRTNWFSRLFWQSKCEDQNSYSNRDIEKYNDTQWTSGDNMSSKIQYKISKPIIPQHILTPKKTVKNPYAWSGKNISLDPKVNEMEEEKVVDAFLYTKPPNIVHIESSMPSYNDLPSQKTVSSKKTALKTSEKWSYESPLSRWFLRGSTYFKDYGLSKTSLKTPTGAPQLKQMKMLSRISKGYFNESDIMPDERSPILEYNNTPLDANDSVNNLGNTTPDSQITSYRNNNIDLITARPHSVIYGTTAQQTLETNFNDHHDCNKSTEKHELIIPTPSKPLKKRKKRRQSKMYQHLQHLSRSKPLPLTPNSKYNGEASVQLGKTYTVIQDYEPRLTDEIRISLGEKVKILATHTDGWCLVEKCNTQKGSIHVSVDDKRYLNEDRGIVPGDCLQEYD
B3: HOF1 (protein, UniProt Q05080 1-669, looked up)
Cytokinesis protein 2: MSYSYEACFWDPNDNGVNILLGHISQGIRSCDSMILFFKQRSELEKDYARRLGAITGKLDKDIGTNMDYGKLNETFNVVLSVEKARAQSHSKQSEILFRQIYTDTKAFAANLQARYTTLSGKIERLRMDKFNKKKGCEVLQKKLQDAQIRFRDLQLNENNMIGAKRVEHNKRELLKWESNSQEYKVQLDVLKQEYKASQKFWIHEWAQLSCELQEMENARISFLQSKLQQFATSSMETYILEQTKMDMLTNHLNSFTAADEISTFSKENGTGRLKHKTSKGDMNSSANWAQMSSISTTSKKTESYMDNIRKLSSQLKETENKRKLASIDKYEKPLPSPEVTMATQFRNSTPVIRNETKVVANPTLSLRSSPVQLQSNVDDSVLRQKPDKPRPIVGEEQLKPDEDSKNPDEKGLMVHKRNQSLSSPSESSSSNPTDFSHIKKRQSMESMTTSVSSMANSIDDSQRFAKSWNSSNRKRKSMSHLQVPSSASSRSDDGGRTPNSAHNLNEDDYNTRRDTSTSTILFKPPVAVRGTSRGHTHRQSMIMQDSSNPIEDALYEMERIQSSSKPGTKTGNIMDERGVVRDRGITVTLPIVTSEGFPVIEYAKAMYPLIGNEAPGLANFHKGDYLLITEIVNKDWYKGEVYDNDRIDRNHRIGLIPYNFIQLLHQGL
B4: HSE1 (protein, UniProt P38753 2-452, looked up)
Class E vacuolar …: SSSAIKIRNALLKATDPKLRSDNWQYILDVCDLVKEDPEDNGQEVMSLIEKRLEQQDANVILRTLSLTVSLAENCGSRLRQEISSKNFTSLLYALIESHSVHITLKKAVTDVVKQLSDSFKDDPSLRAMGDLYDKIKRKAPYLVQPNVPEKHNMSTQADNSDDEELQKALKMSLFEYEKQKKLQEQEKESAEVLPQQQQQHQQQNQAPAHKIPAQTVVRRVRALYDLTTNEPDELSFRKGDVITVLEQVYRDWWKGALRGNMGIFPLNYVTPIVEPSKEEIEKEKNKEAIVFSQKTTIDQLHNSLNAASKTGNSNEVLQDPHIGDMYGSVTPLRPQVTRMLGKYAKEKEDMLSLRQVLANAERSYNQLMDRAANAHISPPVPGPALYAGMTHANNTPVMPPQRQSYQSNEYSPYPSNLPIQHPTNSANNTPQYGYDLGYSVVSQPPPGYEQ
B5: LSB1 (protein, UniProt P53281 2-241, looked up)
LAS seventeen-binding protein …: SASLVNRSLKNIRNELEFLKESNVISGDIFELINSKLPEKWDGNQRSPQNADTEEYVEALYDFEAQQDGDLSLKTGDKIQVLEKISPDWYRGKSNNKIGIFPANYVKPAFTRSASPKSAEAASSSTVSRPSVPPPSYEPAASQYPSQQVSAPYAPPAGYMQAPPPQQQQAPLPYPPPFTNYYQQPQQQYAPPSQQAPVEAQPQQSSGASSAFKSFGSKLGNAAIFGAGSAIGSDIVNSIF
B6: LSB3 (protein)
chain: MGINNPIPRSLKSETKKAAKILASFVKPNQVFGADQVIPPDVLKRAKGLAIITILKAGFLFSGRAGSGVIVARLKDGTWSAPSAIAMAGAGAGGMVGIELTDFVFILNTQDAVKSFSEFGTITLGGNVSVSAGPLGRSAEAAASASAGGVAAVFAYSKSKGLFAGVSVEGSAIIERREANRKFYGDNCTAKMILSGRIRPPPAVDPLFRVLESRAFNYRPSNGGRGSFDDDEDDYYDDDDYYNDIPSSFSSTDASSTRPNTRSTRRRAQSGSRYTFDDDDDDDDYGTGYSRNSRLAPTNSGGSGGKLDDPSGASSYYASHRRSGTAQSRARSSRNRWADDEYDDYDDDYESGYRRGNGRDRTKDREVDDLSNRFSKSRISSASTPQTSQGRFTAPTSPSTSSPKAVALYSFAGEESGDLPFRKGDVITILKKSDSQNDWWTGRVNGREGIFPANYVELV
modifications: left off: DHFR F[3], C-terminal, kept
B7: MYO3 (protein, UniProt P36006 1-1272, looked up)
Myosin-3: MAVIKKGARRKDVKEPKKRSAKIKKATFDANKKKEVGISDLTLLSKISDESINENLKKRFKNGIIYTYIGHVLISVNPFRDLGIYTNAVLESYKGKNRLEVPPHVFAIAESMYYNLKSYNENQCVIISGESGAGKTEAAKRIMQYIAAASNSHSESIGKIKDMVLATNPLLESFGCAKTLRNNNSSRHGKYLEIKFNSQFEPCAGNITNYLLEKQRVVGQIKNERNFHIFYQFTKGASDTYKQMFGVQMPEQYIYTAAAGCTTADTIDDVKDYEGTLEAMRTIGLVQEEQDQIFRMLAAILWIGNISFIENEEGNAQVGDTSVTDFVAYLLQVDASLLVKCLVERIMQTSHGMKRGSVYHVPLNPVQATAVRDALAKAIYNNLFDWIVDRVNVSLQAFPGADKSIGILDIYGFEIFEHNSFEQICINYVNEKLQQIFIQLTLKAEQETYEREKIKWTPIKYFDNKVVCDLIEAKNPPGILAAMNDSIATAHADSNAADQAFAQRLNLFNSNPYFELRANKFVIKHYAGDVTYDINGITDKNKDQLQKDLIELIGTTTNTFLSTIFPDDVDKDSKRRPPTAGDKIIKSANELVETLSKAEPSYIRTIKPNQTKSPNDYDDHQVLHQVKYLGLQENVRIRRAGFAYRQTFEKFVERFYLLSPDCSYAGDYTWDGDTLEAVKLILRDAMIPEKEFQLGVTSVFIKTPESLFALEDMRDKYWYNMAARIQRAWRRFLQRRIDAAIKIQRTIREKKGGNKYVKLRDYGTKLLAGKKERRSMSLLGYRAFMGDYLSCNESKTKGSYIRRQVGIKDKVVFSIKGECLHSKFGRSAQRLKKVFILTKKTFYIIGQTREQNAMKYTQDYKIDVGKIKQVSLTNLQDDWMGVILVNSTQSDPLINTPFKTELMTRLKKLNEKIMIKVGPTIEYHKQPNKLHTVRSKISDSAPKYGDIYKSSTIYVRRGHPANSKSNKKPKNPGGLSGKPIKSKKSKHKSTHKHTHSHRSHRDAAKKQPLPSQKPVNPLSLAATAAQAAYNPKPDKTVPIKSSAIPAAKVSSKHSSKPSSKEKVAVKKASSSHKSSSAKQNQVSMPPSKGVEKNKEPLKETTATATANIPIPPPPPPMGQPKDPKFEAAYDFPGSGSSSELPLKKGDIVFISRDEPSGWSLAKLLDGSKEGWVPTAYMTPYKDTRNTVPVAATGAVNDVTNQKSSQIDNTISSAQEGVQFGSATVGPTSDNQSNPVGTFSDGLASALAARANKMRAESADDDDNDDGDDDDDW
B8: MYO5 (protein, UniProt Q04439 1-1219, looked up)
Myosin-5: MAILKRGARKKVHQEPAKRSANIKKATFDSSKKKEVGVSDLTLLSKISDEAINENLKKRFLNATIYTYIGHVLISVNPFRDLGIYTDAVMNEYKGKNRLEVPPHVFAIAESMYYNMKSYNENQCVIISGESGAGKTEAAKRIMQYIAAASSTHTESIGKIKDMVLATNPLLESFGCAKTLRNNNSSRHGKYLEIKFNNQFEPCAGNITNYLLEKQRVVSQIKNERNFHIFYQFTKGASDAYRQTFGVQKPEQYVYTAAAGCISAETIDDLQDYQETLKAMRVIGLGQEEQDQIFRMLAAILWIGNVSFIENEEGNAQVRDTSVTDFVAYLLQIDSQLLIKSLVERIMETNHGMKRGSVYHVPLNIVQADAVRDALAKAIYNNLFDWIVSRVNKSLQAFPGAEKSIGILDIYGFEIFEHNSFEQICINYVNEKLQQIFIQLTLKSEQETYEREKIQWTPIKYFDNKVVCDLIEARRPPGIFAAMNDSVATAHADSNAADQAFAQRLNLFTTNPHFDLRSNKFVIKHYAGDVTYDIDGITDKNKDQLQKDLVELIGTTTNTFLATIFPDTVDRESKRRPPTAGDKIIKSANDLVETLSKAQPSYIRTIKPNETKSPNDYDDRQVLHQIKYLGLQENVRIRRAGFAYRQVFEKFVERFYLLSPHCSYAGDYTWQGDTLDAVKYILQDSSIPQQEYQLGVTSVFIKTPETLFALEHMRDRYWHNMAARIQRAWRRFLQRRIDAATKIQRTIRERKEGNKYEKLRDYGTKVLGGRKERRSMSLLGYRAFMGDYLSCNESKSKGAYIKRQVSIKEKVIFSIHGEALHTKFGRSAQRLKKTFLLTPTTLYIVGQTLVQNAMTYTQDYKIDVRNIQAVSLTNLQDDWVAIKLASSGQPDPLINTYFKTELITHLKRLNDKIQIKIGSAIEYQKKPGKLHSVKCQINESAPKYGDIYKSSTISVRRGNPPNSQVHKKPRKKSSISSGYHASSSQATRRPVSIAAAQHVPTAPASRHSKKPAPPPPGMQNKAATRRSVPNPASTLTASQSNARPSPPTAATRATPAATPAAAAMGSGRQANIPPPPPPPPPSSKPKEPMFEAAYDFPGSGSPSELPLKKGDVIYITREEPSGWSLGKLLDGSKEGWVPTAYMKPHSGNNNIPTPPQNRDVPKPVLNSVQHDNTSANVIPAAAQASLGDGLANALAARANKMRLESDDEEANEDEEEDDW

system: 575 putative partners (preys) of 22 WT SH3-containing proteins; assay: DHFR-PCA on solid medium, WT and SH3-deleted baits (Fig. 1B); assay type: cell-based, Saccharomyces cerevisiae; settings: number of PPIs; SH3 domain in its own protein; DHFR-PCA; Fig2D,S2F
Summary of the method: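 In S. cerevisiae, 22 SH3-containing baits fused genomically to DHFR F[1,2], either WT or with each SH3 replaced via CRISPR by a poly-Gly/Ser linker, screened against 575 DHFR F[3] preys plus 40 negative controls in 1536 arrays, preys duplicated at randomized positions.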

Molecule | SH3-dependent PPIs
B1 | 0
B2 | 0
B3 | 4
B4 | 1
B5 | 8
B6 | 19
B7 | 17
B8 | 19
